{"source": "paper PMC4476257", "about": "(Molecular pharmaceutics, 2015)", "key": {"[1]": {"tested_on": "HeLa and MDA-MB-231 cells", "test": "Anti-proliferation assay, statements pooled over both cell lines", "type": "cell-based, human", "settings": "HeLa and MDA-MB-231 (Figures 3E, 3F), 2.5 µM, 2 h treatment, MTT after 72 h"}, "[2]": {"tested_on": "HeLa cells", "test": "Anti-proliferation assay", "settings": "5 µM, physiological pH, 2 h treatment, MTT after 72 h, Figures 3A and 3E"}, "[3]": {"tested_on": "HeLa and MDA-MB-231 cells", "test": "Cell membrane integrity assay", "type": "cell-based, human", "settings": "HeLa and MDA-MB-231, 10 µM, 2 h, pH 7.4 or pH 5.0; mean, n=4; Figure 4"}, "[4]": {"tested_on": "MDA-MB-231 cells", "test": "Anti-proliferation assay", "type": "cell-based, human", "settings": "MDA-MB-231, 1.25 µM, 2 h treatment, MTT after 72 h; Figures 3B and 3D"}, "[5]": {"settings": "pH 7.4 to pH 5.0, POPC liposomes, peptide:lipid 1:300, 7 µM, 25 °C"}, "[6]": {"settings": "peptide:lipid 1:300, 7 µM, 25 °C, excitation 295 nm"}, "[7]": {"settings": "toxin derivatives conjugated to pHLIP; cited from earlier work"}}, "note": "Like-named read-outs stand apart in the source and are kept apart here. Bridge positions count the residues as written; N and C are the ends. Square brackets hold non-standard residues; d marks the D form. Ends that are not written are not given here. Peptide text beside a SMILES is read from it. I, II: the chains in the order shown. * marks the point of attachment. Dolaproine = CO[C@@H]([C@@H]1CCCN1)[C@@H](C)C(=O)O; Dil = CC[C@H](C)[C@H](NC)[C@@H](CC(=O)O)OC; X1 = C[C@@H](N*)[C@@H](O)c1ccccc1; NMeV = CN[C@H](C(=O)O)C(C)C; Mpa = O=C(O)CCS", "data": [{"compound": "CC[C@H](C)[C@@H]([C@@H](CC(=O)N1CCC[C@H]1[C@H](OC)[C@@H](C)C(=O)N[C@H](C)[C@@H](O)c1ccccc1)OC)N(C)C(=O)[C@@H](NC(=O)[C@@H](NC)C(C)C)C(C)C", "note": "[MMAE, monomethyl auristatin E] (H-[NMeV]V[Dil][Dolaproine]-X1)", "values": [{"measurement": "cytotoxicity", "setting": "[1]", "result": "20–30%"}, {"measurement": "cytotoxicity", "setting": "[2]", "result": "about 70%"}]}, {"compound": "I: GGEQNPIYWARYADWLFTTPLLLLELALLVDADEGTCG-NH2 / II: [Mpa][NMeV]V[Dil][Dolaproine]-X1 (disulfide I:37-II:1) [pHLIP(D25E)-MMAE]", "values": [{"measurement": "disruption of the plasma membrane (trypan blue uptake)", "setting": "[3]", "result": "neither conjugates, nor low pH treatment, caused disruption of the membranes"}, {"measurement": "cell killing at 1.25 µM (percentage as printed)", "setting": "[4]", "result": 49, "unit": "%"}, {"measurement": "pH-dependent secondary structure transition (CD)", "setting": "[5]", "result": "transition from an unstructured conformation to an α-helix"}, {"measurement": "Trp fluorescence emission maximum", "setting": "[6]; pH 5.0, POPC liposomes", "result": 329, "unit": "nm"}, {"measurement": "Trp fluorescence emission maximum", "setting": "[6]; pH 7.4, POPC liposomes", "result": 347, "unit": "nm"}]}, {"compound": "amanitin", "values": [{"measurement": "pK of insertion", "setting": "[7]", "result": 5.9}]}]}
